The text below walks through data of publication PMC3121535 (Journal of molecular biology, 2010).

The target in series [1] is SERCA (sarcoplasmic reticulum calcium ATPase). In words: 2D co-crystal frequency, negative-stain EM. The following applies: sites S16.
The series “cryo-EM structure” concerns the molecule itself. In words: cryo-EM structure.
The series “SDS-PAGE” concerns the molecule itself. In words: SDS-PAGE.

Where no end group is shown, it is not given here. [ ]: non-standard residue; d: D form. pS = N[C@@H](COP(=O)(O)O)C(=O)O

For the molecule “phospholamban (PLB) (from UniProt P26678) PKA-phosphorylated K27A PLB”, the “other: crystals per grid square” value in series [1] (reference: non-phosphorylated K27A PLB) is “weaker; reference 5 ± 1 (n = 6)”. Regarding “phospholamban (PLB) (from UniProt P26678) PKA-phosphorylated wild-type PLB”, the “other: crystals per grid square” value in series [1] (reference: non-phosphorylated wild-type PLB) was “weaker; reference 3.1 ±0.5 (n = 7)”.

B1: wild-type phospholamban (PLB) (natural protein, human, UniProt P26678 1-52, looked up)
chain: MEKVQYLTRSAIRRASTIEMPQQARQKLQNLFINFCLILICLLLICIIVMLL
Turning to B1, the “stoichiometry N” value in “cryo-EM structure” was 5.

B2: phosphorylated K27A phospholamban (Ser16, by PKA) (natural protein, human, UniProt P26678 1-52, looked up)
chain: MEKVQYLTRSAIRRA[pS]TIEMPQQARQALQNLFINFCLILICLLLICIIVMLL
modifications: cysteine pairing not given here
Consider B2, for which the “stoichiometry N” value in the series “SDS-PAGE” was 5.

B3: phospholamban gain-of-function mutant Lys27-to-Ala (K27A) (natural protein, human, UniProt P26678 1-52, looked up)
chain: MEKVQYLTRSAIRRASTIEMPQQARQALQNLFINFCLILICLLLICIIVMLL
Take B3: the “stoichiometry N” value in “cryo-EM structure” came out at 5.

B4: phosphorylated wild-type phospholamban (Ser16, by PKA) (natural protein, human, UniProt P26678 1-52, looked up)
chain: MEKVQYLTRSAIRRA[pS]TIEMPQQARQKLQNLFINFCLILICLLLICIIVMLL
modifications: cysteine pairing not given here
With B4, in the series “cryo-EM structure”, the “stoichiometry N” value came to 5.
